What was measured:
[1] = target: T1, murine PDGFRa on NIH3T3 cells (murine, UniProt P26618 25-1089); experiment: FACS on NIH3T3 cells, 10 ug/ml antibody, goat anti-human IgG Cy5
T1 construct: whole, on cells; also called mouse PDGFR-alpha

[2] = target: T2, PDGFR-alpha on human osteosarcoma MG-63 cells (human, UniProt P16234 24-1089); experiment: cell-based or functional assay
[3] = target: T3, Recombinant human sPDGFR-alpha (R&D catalog# 322-PR/CF) (human, UniProt P16234 24-528); experiment: Biacore T100 SPR, 22 C, mAb immobilised on CM5, sPDGFR-alpha injected, 1:1 fit
T3 construct: extracellular domain; Bought reagent; also called soluble PDGFRa; recombinant soluble PDGFR-alpha extracellular domain
T3 sequence (P16234 24-528): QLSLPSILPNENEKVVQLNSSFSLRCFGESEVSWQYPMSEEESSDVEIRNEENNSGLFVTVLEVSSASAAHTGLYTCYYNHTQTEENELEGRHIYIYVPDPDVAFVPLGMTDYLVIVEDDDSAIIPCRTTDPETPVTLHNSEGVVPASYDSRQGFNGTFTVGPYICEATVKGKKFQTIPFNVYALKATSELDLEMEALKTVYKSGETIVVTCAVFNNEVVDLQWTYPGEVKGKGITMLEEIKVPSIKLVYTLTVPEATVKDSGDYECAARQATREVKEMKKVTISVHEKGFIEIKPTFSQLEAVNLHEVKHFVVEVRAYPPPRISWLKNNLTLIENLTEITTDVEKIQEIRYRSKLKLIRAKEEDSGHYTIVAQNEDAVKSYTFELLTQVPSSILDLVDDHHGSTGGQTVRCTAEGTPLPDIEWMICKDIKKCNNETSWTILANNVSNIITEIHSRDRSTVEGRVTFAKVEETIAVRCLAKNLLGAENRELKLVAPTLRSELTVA

[4] = target: T3, Recombinant human sPDGFR-alpha (R&D …); experiment: soluble PDGFRa binding ELISA, plate coated with recombinant human PDGFR-alpha
[5] = target: T2, PDGFR-alpha on human osteosarcoma MG-63 …; experiment: cell-based or functional assay; remark: listed apart in the source
[6] = target: T1, murine PDGFRa on NIH3T3 cells; experiment: FACS on NIH3T3 cells, goat anti-human IgG Cy5
[7] = target: T2, PDGFR-alpha on human osteosarcoma MG-63 …; experiment: FACS titration on MG-63 cells, 4 C, Cy5 goat anti-human detection
[8] = target: c-kit (UniProt P10721 26-520, limits assumed); experiment: method not described
c-kit, sequence (P10721 26-520 limits assumed): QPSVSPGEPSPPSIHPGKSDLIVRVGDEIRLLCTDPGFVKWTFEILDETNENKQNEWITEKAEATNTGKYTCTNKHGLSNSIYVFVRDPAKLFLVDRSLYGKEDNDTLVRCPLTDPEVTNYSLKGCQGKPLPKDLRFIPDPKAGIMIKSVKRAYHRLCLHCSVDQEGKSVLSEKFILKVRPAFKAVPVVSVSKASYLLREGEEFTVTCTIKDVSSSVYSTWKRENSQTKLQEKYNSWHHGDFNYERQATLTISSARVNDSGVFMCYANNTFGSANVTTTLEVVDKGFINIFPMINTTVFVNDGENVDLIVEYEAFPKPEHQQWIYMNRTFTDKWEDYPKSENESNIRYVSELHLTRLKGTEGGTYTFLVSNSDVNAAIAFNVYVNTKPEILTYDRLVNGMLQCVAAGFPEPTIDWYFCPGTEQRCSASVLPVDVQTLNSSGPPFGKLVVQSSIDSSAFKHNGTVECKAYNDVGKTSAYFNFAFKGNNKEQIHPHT

[9] = target: CSF-1R (UniProt P07333 20-512, limits assumed); experiment: method not described
CSF-1R, sequence (P07333 20-512 limits assumed): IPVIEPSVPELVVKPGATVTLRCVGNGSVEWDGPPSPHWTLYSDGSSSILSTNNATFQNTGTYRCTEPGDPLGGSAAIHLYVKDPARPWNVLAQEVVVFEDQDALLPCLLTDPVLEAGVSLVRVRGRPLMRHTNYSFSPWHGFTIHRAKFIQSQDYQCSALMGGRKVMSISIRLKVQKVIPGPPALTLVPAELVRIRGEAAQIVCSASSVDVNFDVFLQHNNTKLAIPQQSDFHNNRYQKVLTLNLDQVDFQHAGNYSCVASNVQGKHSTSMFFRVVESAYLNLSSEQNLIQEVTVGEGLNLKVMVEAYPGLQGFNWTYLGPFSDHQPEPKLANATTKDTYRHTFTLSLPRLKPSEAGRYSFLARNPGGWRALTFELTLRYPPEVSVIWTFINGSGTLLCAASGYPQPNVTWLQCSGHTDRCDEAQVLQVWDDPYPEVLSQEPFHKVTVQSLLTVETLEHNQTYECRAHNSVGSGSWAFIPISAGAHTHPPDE

[10] = target: FLT3 (UniProt P36888 27-541, limits assumed); experiment: method not described
[11] = target: PDGFR-beta (UniProt P09619 33-530, limits assumed); experiment: method not described
PDGFR-beta, sequence (P09619 33-530 limits assumed): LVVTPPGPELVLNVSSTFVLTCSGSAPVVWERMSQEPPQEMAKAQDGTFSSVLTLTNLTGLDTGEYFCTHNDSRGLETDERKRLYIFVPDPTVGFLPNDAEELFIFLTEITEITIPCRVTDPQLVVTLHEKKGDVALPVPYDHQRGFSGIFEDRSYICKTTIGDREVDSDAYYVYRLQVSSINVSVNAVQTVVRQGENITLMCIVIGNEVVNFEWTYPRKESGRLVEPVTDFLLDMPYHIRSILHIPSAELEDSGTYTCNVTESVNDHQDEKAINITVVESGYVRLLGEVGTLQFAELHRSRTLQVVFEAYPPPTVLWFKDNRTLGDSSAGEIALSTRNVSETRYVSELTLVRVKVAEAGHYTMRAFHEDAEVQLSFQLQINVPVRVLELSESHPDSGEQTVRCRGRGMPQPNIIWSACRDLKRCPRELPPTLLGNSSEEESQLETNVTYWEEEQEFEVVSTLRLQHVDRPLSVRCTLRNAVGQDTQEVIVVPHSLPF

[12] = target: T4, Mouse PDGFRa on NIH3T3 cells (mouse, UniProt P26618 25-1089); experiment: FACS on NIH3T3 cells, 10 ug/ml antibody
T4 construct: whole, on cells; also called endogenous PDGFRa of NIH3T3 murine fibroblasts
T4 sequence (P26618 25-1089): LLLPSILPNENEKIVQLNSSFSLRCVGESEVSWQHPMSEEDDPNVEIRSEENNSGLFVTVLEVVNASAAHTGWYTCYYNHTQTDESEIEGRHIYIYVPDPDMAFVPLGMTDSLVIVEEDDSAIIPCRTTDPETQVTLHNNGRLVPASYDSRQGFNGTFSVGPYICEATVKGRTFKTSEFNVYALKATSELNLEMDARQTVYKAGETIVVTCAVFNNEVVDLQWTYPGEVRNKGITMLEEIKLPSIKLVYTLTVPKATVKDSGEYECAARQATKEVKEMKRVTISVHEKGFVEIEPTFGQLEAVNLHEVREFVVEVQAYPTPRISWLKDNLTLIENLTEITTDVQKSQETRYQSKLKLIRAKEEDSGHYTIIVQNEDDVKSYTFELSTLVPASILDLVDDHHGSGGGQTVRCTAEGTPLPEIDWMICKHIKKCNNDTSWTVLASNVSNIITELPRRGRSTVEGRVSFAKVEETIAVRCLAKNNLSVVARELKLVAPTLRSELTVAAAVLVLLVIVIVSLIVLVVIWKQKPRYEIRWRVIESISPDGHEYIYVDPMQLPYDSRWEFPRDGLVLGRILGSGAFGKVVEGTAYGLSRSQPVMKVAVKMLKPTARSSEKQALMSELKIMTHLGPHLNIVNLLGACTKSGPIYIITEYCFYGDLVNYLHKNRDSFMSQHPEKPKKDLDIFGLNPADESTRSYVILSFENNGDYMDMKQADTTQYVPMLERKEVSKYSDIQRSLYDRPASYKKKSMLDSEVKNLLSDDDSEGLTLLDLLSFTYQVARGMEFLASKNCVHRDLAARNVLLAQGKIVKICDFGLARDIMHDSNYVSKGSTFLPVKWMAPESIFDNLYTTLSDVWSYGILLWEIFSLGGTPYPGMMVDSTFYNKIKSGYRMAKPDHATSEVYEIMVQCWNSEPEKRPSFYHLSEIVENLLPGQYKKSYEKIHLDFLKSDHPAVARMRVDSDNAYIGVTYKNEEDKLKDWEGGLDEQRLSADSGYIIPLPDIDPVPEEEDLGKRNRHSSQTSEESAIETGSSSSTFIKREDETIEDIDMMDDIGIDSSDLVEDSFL

T1 sequence (P26618 25-1089): as above
T2 sequence (P16234 24-1089): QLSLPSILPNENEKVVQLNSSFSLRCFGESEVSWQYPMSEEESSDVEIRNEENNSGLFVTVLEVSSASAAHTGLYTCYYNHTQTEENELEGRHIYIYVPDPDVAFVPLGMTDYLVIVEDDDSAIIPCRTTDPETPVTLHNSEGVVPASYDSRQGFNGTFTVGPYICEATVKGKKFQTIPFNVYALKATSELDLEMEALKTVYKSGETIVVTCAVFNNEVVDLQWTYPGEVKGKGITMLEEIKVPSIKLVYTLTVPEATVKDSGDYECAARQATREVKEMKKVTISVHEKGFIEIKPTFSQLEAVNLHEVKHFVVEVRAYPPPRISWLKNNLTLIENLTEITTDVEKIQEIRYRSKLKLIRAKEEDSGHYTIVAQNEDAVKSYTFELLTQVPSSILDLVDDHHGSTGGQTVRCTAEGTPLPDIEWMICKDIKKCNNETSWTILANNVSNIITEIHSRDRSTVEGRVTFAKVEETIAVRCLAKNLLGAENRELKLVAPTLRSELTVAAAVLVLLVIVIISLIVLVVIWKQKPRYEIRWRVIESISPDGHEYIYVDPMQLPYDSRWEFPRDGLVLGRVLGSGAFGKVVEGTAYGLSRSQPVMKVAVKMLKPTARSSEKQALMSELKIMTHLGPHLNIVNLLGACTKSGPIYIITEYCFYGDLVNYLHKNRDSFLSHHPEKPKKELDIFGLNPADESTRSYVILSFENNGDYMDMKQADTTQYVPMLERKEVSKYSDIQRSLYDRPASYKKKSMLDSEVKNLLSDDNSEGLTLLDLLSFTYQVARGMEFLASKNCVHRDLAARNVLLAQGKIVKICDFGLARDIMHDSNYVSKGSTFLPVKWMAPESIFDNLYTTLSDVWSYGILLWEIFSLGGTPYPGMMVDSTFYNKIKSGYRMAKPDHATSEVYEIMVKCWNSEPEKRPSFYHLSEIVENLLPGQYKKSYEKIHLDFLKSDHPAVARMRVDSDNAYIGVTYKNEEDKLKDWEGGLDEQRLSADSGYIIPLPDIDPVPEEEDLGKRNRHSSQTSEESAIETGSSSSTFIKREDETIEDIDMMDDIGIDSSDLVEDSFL

| Binder | binding result [1] | Proliferation Assay: IC50 ng/ml (1-6-06) [2] [ng/mL] | Proliferation Assay: IC50 ng/ml (1-23-06) [2] [ng/mL] | pTyr Assay: % Inhibition @ 2 µg/ml [2] [%] | Kd [3] [nM] | koff [3] [s⁻¹] | kon [3] [M⁻¹ s⁻¹] | IC50 [4] [µg/mL] | PTYR Assay IC50 [5] [µg/mL] | binding result [6] | Proliferation Assay: IC50 (1-6-06) [2] [nM] | Proliferation Assay: IC50 (1-23-06) [2] [nM] | Kd [7] [nM] | binding result [8] | binding result [9] | binding result [10] | binding result [11] | binding result [12] |
| --- | --- | --- | --- | --- | --- | --- | --- | --- | --- | --- | --- | --- | --- | --- | --- | --- | --- | --- |
| 2.449.1 variant A (antibody, V domains shown, also called 2.449.1.3 Variant A; 2.449.1.3 variant A) VH: QVQLVESGGGLVKPGGSLRLSCAASGFTFSDYYMNWIRQAPGKGLEWVSYISSSGSIIYYADSVKGRFTISRDNAKNSLYLQMNSLRAEDTAVYYCAREGRIAARGMDVWGQGTTVTVSS VL: DIQMTQSPSSLSASVGDRVSITCRPSQSFSRYINWYQQKPGKAPKLLIYAASSLVGGVPSRFSGSGSGTDFTLTISSLQPEDFATYYCQQTYSNPPITFGQGTRLEIK |  |  |  |  | 0.0086 | 3.8e-06 | 440000 | 0.045 | 0.031 |  |  |  |  |  |  |  |  |  |
| 2.1853.3 (antibody, V domains shown) VH: QVQLVESGGGLVKPGGSLRLSCAASGFTFSDYYMNWIRQAPGKGLEWVSYISSSGSIIYYADSVKGRFTISRDNAKNSLYLQMNSLRAEDTAVYYCARDGRIVARGMDVWGQGTTVTVSS VL: DIQMTQSPSSLCASVGDRVTITCRASRSITRYLNWYQQKPGKAPKLLIYGASSLQSGVPSRFSGSGSGTDFTLTISSLQPEDFATYYCQQSYSTPPITFGQGTRLEIK | binds | 1120 | 2680 | 98 |  |  |  |  |  |  |  |  |  |  |  |  |  |  |
| 2.1623.2 (antibody, V domains shown, Variable regions only) VH: QVQLVESGGGLVKPGGSLRLSCAASGFTFSDYYMNWIRQAPGKGLEWVSFISSSGSTIYYADSVKGRFTISRDNAKNSLYLQMNSLRAEDTAVYYCARDGHIAARGMDVWGQGTTVTVSS VL: DIQMTQSPSSLSASVGDRVTITCRASQSFSRYINWYQQKPGKAPKLLIYAASSLQGGVPSRFSGSGSGTDFTLAISSLQPEDFATYYCQQTYSTPPITFGQGTRLEIK |  |  |  |  |  |  |  |  |  |  |  |  |  | no binding | no binding | no binding | no binding | binds |
| 2.175.3 variant A (antibody, V domains shown) VH: QVQLVESGGGLVKPGGSLRLSCAASGFTFSDYYMHWIRQAPGKGLEWVSYISRSGSLIYYVDSVKGRFTISRDNAKNSLYLQMNSLRAEDTAVYYCARGGPYSGSPFDYWGQGTLVTVSS VL: DIQMTQSPSSLSASVGDRVTITCRPSQRISRYLNWYQQKPGKAPKLLIYAASSLPSGVPSRFSGSGSGTDFTLTISSLQPEDFATYYCQQSYSTPPWTFGQGTKVEIK |  |  |  |  | 0.0071 | 2.53e-06 | 355000 | 0.046 | 0.029 |  |  |  |  |  |  |  |  |  |
| 2.175.3 (antibody, V domains shown, identified by its values; also called mAb 2.175.3) VH: QVHLVESGGGLVKPGGSLRLSCAASGFTFSDYYMHWIRQAPGKGLEWVSYISRSGSLIYYVDSVKGRFTISRDNAKNSLNLQMNSLRAEDTAVYYCARGGPYSGSPFDYWGQGTLVTVSS VL: DIQMTQSPSSLSASVGDRVTITCRPSQRISRYLNWYQQKPGKAPKFLIYAASSLPSGVPSRFSGSGSGTDFTLTISTLQPEDFATYYCQQSYSTPPWTFGQGTKVEIK | binds | 67.3 | 56.1 | 100 | 0.05 | 2.59e-05 | 516000 | 0.038 | 0.028 |  | 0.45 | 0.37 | 0.328 |  |  |  |  |  |

Further lines, results first:

| binding result [1] | Proliferation Assay: IC50 ng/ml (1-6-06) [2] [ng/mL] | Proliferation Assay: IC50 ng/ml (1-23-06) [2] [ng/mL] | pTyr Assay: % Inhibition @ 2 µg/ml [2] [%] | Kd [3] [nM] | koff [3] [s⁻¹] | kon [3] [M⁻¹ s⁻¹] | IC50 [4] [µg/mL] | PTYR Assay IC50 [5] [µg/mL] | binding result [6] | Proliferation Assay: IC50 (1-6-06) [2] [nM] | Proliferation Assay: IC50 (1-23-06) [2] [nM] | Kd [7] [nM] | binding result [8] | binding result [9] | binding result [10] | binding result [11] | binding result [12] | Binder |
| --- | --- | --- | --- | --- | --- | --- | --- | --- | --- | --- | --- | --- | --- | --- | --- | --- | --- | --- |
| binds | 755 | 982 | 97 |  |  |  |  |  |  |  |  |  |  |  |  |  |  | 2.1623.2 (antibody, V domains shown) VH: QVQLVESGGGLVKPGGSLRLSCAASGFTFSDYYMNWIRQAPGKGLEWVSFISSSGSTIYYADSVKGRFTISRDNAKNSLYLQMNSLRAEDTAVYYCARDGHIAARGMDVWGQGTTVTVSS VL: DIQMTQSPSSLSASVGDRVTITCRASQSFSRYINWYQQKPGKAPKLLIYAASSLQGGVPSRFSGSGSGTDFTLAISSLQPEDFATYYCQQTYSTPPITFGQGTRLEIK |
|  | 179 | 237 | 99 | 0.14 | 6.16e-05 | 440000 | 0.044 | 0.021 | no binding (tested: 10 ug/ml) | 1.2 | 1.57 | 0.052 |  |  |  |  |  | 2.449.1.3 (antibody, V domains shown, identified by its values; also called mAb 2.449.1.3) VH: QVQLVESGGGLVKPGGSLRLSCAASGFTFSDYYMNWIRQAPGKGLEWVSYISSSGSIIYYADSVKGRFTISRDNAKNSLYLQMNSLRAEDTAVYYCAREGRIAARGMDVWGQGTTVTVSS VL: DIQMTQSPSSLSASVGDRVSITCRPSQSFSRYINWYQQKPGKAPKLLIHAASSLVGGVPSRFSGSGSGTDFTLTISSLQPEDFATYYCQQTYSNPPITFGQGTRLEMK |
|  |  |  |  |  |  |  |  |  |  |  |  |  | no binding | no binding | no binding | no binding | binds | 2.1853.3 (antibody, V domains shown, Variable regions only) VH: QVQLVESGGGLVKPGGSLRLSCAASGFTFSDYYMNWIRQAPGKGLEWVSYISSSGSIIYYADSVKGRFTISRDNAKNSLYLQMNSLRAEDTAVYYCARDGRIVARGMDVWGQGTTVTVSS VL: DIQMTQSPSSLCASVGDRVTITCRASRSITRYLNWYQQKPGKAPKLLIYGASSLQSGVPSRFSGSGSGTDFTLTISSLQPEDFATYYCQQSYSTPPITFGQGTRLEIK |
|  |  |  |  |  |  |  |  |  |  |  |  |  | no binding | no binding | no binding | no binding | binds | 2.175.3 (antibody, V domains shown, Variable regions only) VH: QVHLVESGGGLVKPGGSLRLSCAASGFTFSDYYMHWIRQAPGKGLEWVSYISRSGSLIYYVDSVKGRFTISRDNAKNSLNLQMNSLRAEDTAVYYCARGGPYSGSPFDYWGQGTLVTVSS VL: DIQMTQSPSSLSASVGDRVTITCRPSQRISRYLNWYQQKPGKAPKFLIYAASSLPSGVPSRFSGSGSGTDFTLTISTLQPEDFATYYCQQSYSTPPWTFGQGTKVEIK |
|  | 308 | 316 | 99 | 0.164 | 4.89e-05 | 298000 |  |  | no binding (tested: 10 ug/ml) | 2.05 | 2.1 | 0.057 |  |  |  |  |  | 2.998.2 (antibody, V domains shown, identified by its values; also called mAb 2.998.2) VH: QLQLQESGPGLVKPSETLSLTCTVSGDSISSFIYYWGWIRQPPGKGLEWIGTIYYSGSTYYNPSLKSRVTISVDTSKNQFSLKLRSVTAADTAVYYCARHHWVFDYWGQGTQVTVSS VL: DIVLTQFPDFQSVTPKEKVTITCRASQVIGSSLHWYQQKPDQSPKLLIKYASQSFSGVPSRFSGSGSGTDFTLTINSLEVEDAATYYCHQSTILPWTFGQGTKVEVK |

— patent US20090324601A1 (published 2009)
